Values of other authors in patent publication US4183849A, “Therapeutic insulin preparation and a process for the production of a stable insulin preparation with protracted effect” (Nordisk Insulinlaboratorium, priority 1975, dated 1980).

Details: impurities of recrystallized insulin, stated as known

For proinsulin, the antigenicity is given as “highly antigenic”.
